According to US9890400B2, “Method of production of 2,4-dihydroxybutyric acid” (ADISSEO FRANCE S.A.S., priority 2012, dated 2018):

How the values were obtained:
[1] = substrate: O=CC(=O)O; test: Malyl-CoA lyase assay coupled to citrate synthase / DTNB; type: biochemical, M. extorquens; settings: other: pH 7.5, 37° C., 1 mM acetyl-CoA
From the text: Construction of plasmids containing wild-type genes coding for malyl-CoA lyase: The DNA sequences of the mcl genes coding for malyl-CoA lyase in M. extorquens (Arps et al., 1993) and Rhodobacter capsulatus (Meister et al., 2005) were optimized for the expression in Escherichia coli using the GENEius software (Eurofins). The optimized sequences were synthesized by Eurofins MWG OPERON® adding NheI and EcoRI restriction sites upstream of the start codon and downstream of the stop codon of mcl, respectively, which allowed direct cloning of the synthesized DNA fragments into the pET28a+ vector (Novagen) using T4 DNA ligase (Biolabs). […]
Malyl-CoA lyase activity was assayed using a method adapted from (Meister et al., 2005). Malyl-CoA synthesis by malyl-CoA lyase was coupled to the citrate synthase-catalyzed release of coenzyme A which was monitored by its spontaneous reaction with DTNB. […]
The reaction mixture according to Assay 1 contained 50 mM MOPS/KOH (pH 7.5), 0.25 mM DTNB, 5 mM MgCl2, 1 mM acetyl-CoA, 20 U/mL citrate synthetase (all products from Sigma), and appropriate amounts of purified malyl-CoA lyase or cell extract. […] The reactions were followed by the characteristic absorption of DNTB at 412 nm (εDNTB+CoA=13.6 mM^−1 cm^−1) in a microplate reader (BioRad 680XR).

[2] = substrate: O=CC[C@H](O)C(=O)O; test: Malate semialdehyde reductase activity; type: biochemical, Metallosphaera sedula; settings: other: malate semialdehyde, NADH or NADPH, pH 7.5, 30° C., average of at least two independent experiments
Protocol: (§1) Test for Malate Semialdehyde Reductase Activity: (L)-Malate semialdehyde+NAD(P)H→(L)-2,4-dihydroxybutyric acid+NAD(P) Reaction scheme:
(§2) The assay mixture contained 200 mM Hepes (pH 7.5), 50 mM KCl, 5 mM MgCl2, 0.24 mM NADH or NADPH, and appropriate amounts of purified enzyme or cell extract. Reactions were started by adding 10 mM (L)-malate semialdehyde (malate semialdehyde was prepared freshly for each test, see Example 3). Enzymatic assays were carried out at 30° C. in 96-well flat bottomed microtiter plates in a final volume of 250 μL. The reactions were followed by the characteristic absorption of NAD(P)H at 340 nm (εNADPH=6.22 mM^−1 cm^−1) in a microplate reader (BioRad 680XR).
Site-directed mutagenesis was carried out using the oligonucleotide pairs listed in Table 6 and the pET28-Mse-SSR plasmid as the template. Point mutations to change the amino acid sequences were introduced by PCR (Phusion 1U, HF buffer 20% (v/v), dNTPs 2.5 mM, direct and reverse primers 1 μM each, template plasmid 200 ng, water). When possible, plasmids created by PCR contained new restriction sites (introduced using silent mutations) in addition to the functional mutation to facilitate identification of mutated clones. The PCR products were digested by DpnI at 37° C. for 2×2 h to remove template DNA, and transformed into NEB DH5-α competent E. coli cells (NEB). The mutated plasmids were identified by restriction site analysis and verified to carry the desired mutations by DNA sequencing.

[3] = substrate: O=CC[C@H](O)C(=O)O; test: Malate semialdehyde reductase activity; type: biochemical, Metallosphaera sedula; settings: other: malate semialdehyde, NADH or NADPH, pH 7.5, 30° C., average of at least two independent experiments; remark: listed apart in the source
Protocol: To identify a suitable 2,4 DHB dehydrogenase, beta-hydroxyacid dehydrogenases from different biological sources were tested for their ability to reduce malate semialdehyde. […] The genes YPR1, 4hbdh, yqhD, and Ms-SSR were amplified using primers listed in Table 5 and cloned into vector pET28 (restriction enzymes see Table 5) yielding plasmids pET28-Sce-YPR1, pET28-Pgi-4-hbdh, pET28-Eco-yqhd and pET28-Mse-SSR, respectively. The proteins were expressed and purified as described in Example 1.
as §1, §2

[4] = substrate: O=CC[C@H](O)C(=O)O; test: purified protein, by the assay type; type: biochemical, Sulfolobus tokodaii; settings: other: oxidative sense, 1 mM NADP, 0.5 mM coenzyme A, pH 9, 37° C.
Protocol: NCBI references of the utilized mcr and sucD protein sequences, and the references for the corresponding natural and synthetic DNA sequences are listed in Table 2.
To purify St-Mcr, frozen cell pellets of expression cultures were resuspended in 0.5 mL of breakage buffer (50 mM Hepes, 300 mM NaCl, pH 7.5) and broken open by four successive rounds of sonication (sonication interval: 20 sec, power output: 30%, sonicator: Bioblock Scientific, VibraCell™ 72437). Cell debris were removed by centrifuging the crude extracts for 15 min at 4° C. at 13000×g and retaining the clear supernatant. Native proteins of E. coli were removed by heat precipitation at 85° C. during 30 min followed by centrifugation at 13000×g. […]
Assay 1 (Reaction Scheme): glyoxylate+acetyl-CoA→malyl-CoA+acetate Malyl-CoA lyase: (L)-Malyl-CoA+NADPH→(L)-Malate semialdehyde+Coenzyme A+NADP Malyl-CoA reductase: Assay 2 (Reaction Scheme): (L)-Malate semialdehyde+Coenzyme A+NADP→(L)-Malyl-CoA+NADPH The reaction mixture according to Assay 1 contained 50 mM MOPS/KOH (pH 7.5), 10 mM glyoxylate, 4 mM acetyl-CoA, 5 mM MgCl2, 0.25 mM NADPH (all products from Sigma), 5 U/mL of malyl-CoA lyase, and appropriate amounts of purified malyl-CoA reductase or cell extract. […] The reactions were followed by the characteristic absorption of NADPH at 340 nm (εNADPH=6.22 mM^−1 cm^−1) in a microplate reader (BioRad 680XR). […]

[5] = substrate: CC(C)(COP(=O)(O)OP(=O)(O)OC[C@H]1O[C@@H](n2cnc3c(N)ncnc32)[C@H](O)[C@@H]1OP(=O)(O)O)[C@@H](O)C(=O)NCCC(=O)NCCSC(=O)CCC(=O)O; test: purified protein, by the assay type; settings: other: reductive sense, succinyl-CoA added directly, NADPH, pH 7.5, 37° C., pH 7.5
[6] = substrate: O=CCCC(=O)O; test: purified protein, by the assay type; settings: other: oxidative sense, 1 mM NADP, 0.5 mM coenzyme A, pH 9, 37° C., pH 9.0

B1: M. extorquens malyl-CoA lyase (Me-Mcl), wild type, SEQ ID No. 1 (Methylorubrum extorquens AM1) (protein)
chain: MSFTLIQQATPRLHRSELAVPGSNPTFMEKSAASKADVIFLDLEDAVAPDDKEQARKNIIQALNDLDWGNKTMMIRINGLDTHYMYRDVVDIVEACPRLDMILIPKVGVPADVYAIDVLTTQIEQAKKREKKIGFEVLIETALGMANVEAIATSSKRLEAMSFGVADYAASTRARSTVIGGVNADYSVLTDKDEAGNRQTHWQDPWLFAQNRMLVACRAYGLRPIDGPFGDFSDPDGYTSAARRCAALGFEGKWAIHPSQIDLANEVFTPSEAEVTKARRILEAMEEAAKAGRGAVSLDGRLIDIASIRMAEALIQKADAMGGK
notes: full length 324 aa
With B1 the Km [1] was 500 µM and the Vmax [1] was 36 μmol/(min mg prot).

B2: Metallosphaera sedula succinic semialdehyde reductase (Ms-SSR) mutant H39R, SEQ ID No. 32 (Metallosphaera sedula DSM 5348; H39R) (protein)
chain: MKAAVLHTYKEPLSIEDVNISQPKAGEVKIKVKATGLCRSDVNVFEGKTPVPPPVVAGHEISGIVEEVGPGVTRVKPGDRVISAFIHPCGKCGNCVAGKENLCETFSQVRLKGVMPDGTSRLSKDGKEIRTFLGGGFAEYAIVGENALTRVPEDMDLEKVAVLGCAGLTGYGAISSSKIEPGDTVAVIGVGGVGLSTIQLLRASGAGRIIAVGTKKWKLDRAMELGATDVVNSKEIDPVKAIKEITGGGPQVVIEAGGNEDTIHMALDSVRIGGKVVLVGLPPATAMIPIRVASIVRGGIEVVGNYGGRPRVDMPKLLELVRQGRYDPSRLVTGRFRLEEINEAVKMLEEGEAIRSLIIP
For B2, the Km [2] was 1000 µM.

B3: Metallosphaera sedula succinic semialdehyde reductase (Ms-SSR) mutant N43H, SEQ ID No. 34 (Metallosphaera sedula DSM 5348; N43H) (protein)
chain: MKAAVLHTYKEPLSIEDVNISQPKAGEVKIKVKATGLCHSDVHVFEGKTPVPPPVVAGHEISGIVEEVGPGVTRVKPGDRVISAFIHPCGKCGNCVAGKENLCETFSQVRLKGVMPDGTSRLSKDGKEIRTFLGGGFAEYAIVGENALTRVPEDMDLEKVAVLGCAGLTGYGAISSSKIEPGDTVAVIGVGGVGLSTIQLLRASGAGRIIAVGTKKWKLDRAMELGATDVVNSKEIDPVKAIKEITGGGPQVVIEAGGNEDTIHMALDSVRIGGKVVLVGLPPATAMIPIRVASIVRGGIEVVGNYGGRPRVDMPKLLELVRQGRYDPSRLVTGRFRLEEINEAVKMLEEGEAIRSLIIP
B3 was tested, and the Km [2] was 5000 µM.

B4: Metallosphaera sedula succinic semialdehyde reductase (Ms-SSR) double mutant H39R N43H, SEQ ID No. 36 (Metallosphaera sedula DSM 5348; H39R/N43H) (protein)
chain: MKAAVLHTYKEPLSIEDVNISQPKAGEVKIKVKATGLCRSDVHVFEGKTPVPPPVVAGHEISGIVEEVGPGVTRVKPGDRVISAFIHPCGKCGNCVAGKENLCETFSQVRLKGVMPDGTSRLSKDGKEIRTFLGGGFAEYAIVGENALTRVPEDMDLEKVAVLGCAGLTGYGAISSSKIEPGDTVAVIGVGGVGLSTIQLLRASGAGRIIAVGTKKWKLDRAMELGATDVVNSKEIDPVKAIKEITGGGPQVVIEAGGNEDTIHMALDSVRIGGKVVLVGLPPATAMIPIRVASIVRGGIEVVGNYGGRPRVDMPKLLELVRQGRYDPSRLVTGRFRLEEINEAVKMLEEGEAIRSLIIP
B4 gave a Km [2] of 1000 µM.

B5: Metallosphaera sedula succinic semialdehyde reductase (Ms-SSR), wild type, SEQ ID No. 16 (Metallosphaera sedula DSM 5348) (protein)
chain: MKAAVLHTYKEPLSIEDVNISQPKAGEVKIKVKATGLCHSDVNVFEGKTPVPPPVVAGHEISGIVEEVGPGVTRVKPGDRVISAFIHPCGKCGNCVAGKENLCETFSQVRLKGVMPDGTSRLSKDGKEIRTFLGGGFAEYAIVGENALTRVPEDMDLEKVAVLGCAGLTGYGAISSSKIEPGDTVAVIGVGGVGLSTIQLLRASGAGRIIAVGTKKWKLDRAMELGATDVVNSKEIDPVKAIKEITGGGPQVVIEAGGNEDTIHMALDSVRIGGKVVLVGLPPATAMIPIRVASIVRGGIEVVGNYGGRPRVDMPKLLELVRQGRYDPSRLVTGRFRLEEINEAVKMLEEGEAIRSLIIP
notes: full length 360 aa
For B5, the Km [3] was 4000 µM.

B6: Sulfolobus tokodaii malonyl-CoA reductase (St-Mcr), wild type, SEQ ID No. 7 (Sulfurisphaera tokodaii str. 7) (protein)
chain: MILMRRTLKAAILGATGLVGIEYVRMLSNHPYIKPAYLAGKGSVGKPYGEVVRWQTVGQVPKEIADMEIKPTDPKLMDDVDIIFSPLPQGAAGPVEEQFAKEGFPVISNSPDHRFDPDVPLLVPELNPHTISLIDEQRKRREWKGFIVTTPLCTAQGAAIPLGAIFKDYKMDGAFITTIQSLSGAGYPGIPSLDVVDNILPLGDGYDAKTIKEIFRILSEVKRNVDEPKLEDVSLAATTHRIATIHGHYEVLYVSFKEETAAEKVKETLENFRGEPQDLKLPTAPSKPIIVMNEDTRPQVYFDRWAGDIPGMSVVVGRLKQVNKRMIRLVSLIHNTVRGAAGGGILAAELLVEKGYIEK
notes: full length 359 aa
B6 was tested, and the Km [4] was 250 µM, the Vmax [4] was 0.1 µmol/min/mg and the Km [5] was 200 µM. The Vmax [5] was 0.98 ± 0.17 µmol/min/mg, the Km [6] was 1150 µM and the Vmax [6] was 1.7 µmol/min/mg.
